Results reported in the supplement of paper PMC9732359.
± gives the uncertainty stated by the source.

Assay: protein stability index of a GFP-peptide fusion (yeast GPS) (PSI 1-4); higher = more stable; sorted into four equal gates, so the index is relative within each strain
Method in brief: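 Mid-log yeast cultures in leucine-free medium, carrying a pooled plasmid library, were sorted into four equal gates by their GFP/Cherry fluorescence ratio. Each plasmid expressed Cherry along with GFP fused upstream of a tiled 17-residue yeast protein peptide. Plasmids recovered from each gate were PCR-amplified and Illumina-sequenced, with reads assigned to strains by barcodes. The protein stability index was obtained by summing each gate's read frequency weighted by its gate number.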

Row | Sequence | protein stability index (doa10∆) | protein stability index (pdr5∆) | protein stability index (san1∆) | protein stability index (ubr1∆)
1 | LYKTFFKRNAVFVGTIF [QCR9] | 1.78 ± 0.075 | 1.36 ± 0.051 | 1.39 ± 0.098 | 1.36 ± 0.054
2 | ISMLVTQLQRGGTSDMN [CSI1] | 3.19 ± 0.1 | 2.53 ± 0.12 | 2.5 ± 0.11 | 2.53 ± 0.067
3 | LFLIIQCYKIYDLVILK [YMR129W/POM152] | 1.29 ± 0.063 | 1.2 ± 0.045 | 1.16 ± 0.085 | 1.16 ± 0.044
4 | FEDATREQHIDTICQSI [SNF5] | 2.88 ± 0.1 | 3.21 ± 0.15 | 3.26 ± 0.066 | 3.19 ± 0.08
5 | EFFNPEIFHLLQPLEEG [SIN4] | 1.88 ± 0.079 | 1.84 ± 0.064 | 1.59 ± 0.086 | 2.07 ± 0.056
6 | LLYLRLKNIYVSADDFV [PRP8] | 1.26 ± 0.052 | 1.39 ± 0.054 | 1.27 ± 0.097 | 1.16 ± 0.046
7 | TGSNDRCIGDSDNVSFE [YMR129W/POM152] | 3.19 ± 0.066 | 2.73 ± 0.068 | 2.5 ± 0.077 | 3.09 ± 0.048
8 | AVVFKPFKGEVVDGTVV [RPB7] | 3.05 ± 0.1 | 3.03 ± 0.048 | 2.79 ± 0.062 | 2.79 ± 0.068
9 | PTQTKGNDAKPAKVEDV [YLR335W/NUP2] | 3.21 ± 0.057 | 3.25 ± 0.053 | 3.27 ± 0.039 | 3.1 ± 0.047
10 | EYKLATYGVPGSENKRG [NUT1] | 3.36 ± 0.086 | 3.25 ± 0.093 | 3.33 ± 0.046 | 2.96 ± 0.065
11 | ELQGYIELSVPDRQSMD [SRB5] | 1.36 ± 0.23 | – | – | 1.17 ± 0.21
12 | LGNIASSFYINHASMDV [BRR2] | 2.84 ± 0.12 | 2.67 ± 0.12 | 2.88 ± 0.1 | 3.27 ± 0.15
13 | FLPRKRAASIRARVKAF [RPL3] | 1.16 ± 0.045 | 1.18 ± 0.064 | 1.15 ± 0.11 | 1.17 ± 0.051
14 | YRTPGSSGVLSSNIAGT [SSN2] | 3.35 ± 0.12 | 3.29 ± 0.1 | 3.03 ± 0.14 | 3.38 ± 0.088
15 | SVKLDLQDDEDHKFPIR [BRN1] | 2.99 ± 0.18 | 2.88 ± 0.098 | 2.76 ± 0.14 | 2.22 ± 0.17
16 | RSQDVRSTDRDRVKVIE [CSL4] | 3.01 ± 0.16 | – | 3.27 ± 0.12 | 2.97 ± 0.079
17 | SRIYKTIKVAGTPLLEV [SNU114] | 2.21 ± 0.052 | 2.38 ± 0.055 | 2.03 ± 0.071 | 2.23 ± 0.053
18 | QGPRSYFLDVKCPGCLN [RPS27A] | 2.93 ± 0.097 | 3.38 ± 0.1 | 3.13 ± 0.08 | 2.6 ± 0.11
19 | KQLNSLRRSGQIANDPS [SMD1] | 2.56 ± 0.09 | 3.02 ± 0.14 | – | 2.91 ± 0.07
20 | LAIIGDENPDLLGYTGI [PRE8] | 1.71 ± 0.06 | 1.93 ± 0.081 | 2.73 ± 0.098 | 1.93 ± 0.054
21 | YDNGQVFPSSILDITDE [RPP0] | 1.91 ± 0.048 | 1.79 ± 0.077 | 2.42 ± 0.093 | 1.32 ± 0.073
22 | QITLTFISELCSIEPIA [YML103C/NUP188] | 1.27 ± 0.035 | 1.46 ± 0.052 | 1.48 ± 0.085 | 1.82 ± 0.055
23 | AGVLNGTLEYGTCFGGS [RET1] | 2.97 ± 0.051 | 2.91 ± 0.057 | 2.99 ± 0.051 | 3.08 ± 0.043
24 | LEASYSKSYTPRKLVLS [SMC4] | 2.31 ± 0.043 | 2.52 ± 0.059 | 2.11 ± 0.088 | 2.22 ± 0.05
25 | GTHNMYKEIRDVSRVAA [RPL20A] | 1.96 ± 0.089 | 2.22 ± 0.14 | 2.03 ± 0.1 | 2.29 ± 0.083
26 | KDLFELERYYKEQADIY [ARP7] | 3.11 ± 0.09 | 3.34 ± 0.083 | 3.46 ± 0.12 | 3.41 ± 0.067
27 | TIDEQSQISPEKQTPNK [RPN1] | 3.24 ± 0.17 | 3.57 ± 0.15 | 3.28 ± 0.12 | 3.22 ± 0.056

Row | Sequence | protein stability index (doa10∆) | protein stability index (pdr5∆) | protein stability index (san1∆) | protein stability index (ubr1∆)
28 | KKAEKAARKAEKAKSAG [RPL24A] | 3.34 ± 0.066 | 3.32 ± 0.053 | 3.53 ± 0.046 | 3.48 ± 0.055
29 | YSKAAEPHAVSLAWSAD [ASC1] | 2.81 ± 0.19 | 2.87 ± 0.084 | 2.8 ± 0.065 | 2.72 ± 0.078
30 | ILDLKEFDRRILKKSLM [RTT102] | – | 3.47 ± 0.23 | 3.19 ± 0.099 | 3.22 ± 0.28
31 | KDQYVPEVSALDLSRSN [RPS17A] | 2.16 ± 0.14 | 2.2 ± 0.1 | 2.02 ± 0.12 | 2.2 ± 0.065
32 | YMEQGNNKIITLVKGPK [SKI6] | 2.76 ± 0.054 | 3.11 ± 0.085 | 2.8 ± 0.054 | 2.96 ± 0.034
33 | TGAYIANRVTDKLTRVH [PRE3] | 1.57 ± 0.068 | 1.76 ± 0.059 | 1.59 ± 0.083 | 1.54 ± 0.056
34 | SMCGFEVRILPRQRMEE [PRP8] | 2.29 ± 0.057 | 1.87 ± 0.053 | 2.23 ± 0.063 | 2.24 ± 0.049
35 | NMKVTILHGSKSQEQRE [PRP28] | 3.42 ± 0.093 | 3.31 ± 0.15 | 3.25 ± 0.046 | 3.35 ± 0.06
36 | YINVNPQEETITFLIEK [ECM29] | 3.23 ± 0.095 | 2.96 ± 0.089 | 2.91 ± 0.064 | 3.17 ± 0.06
37 | SNSVFSPDGRNFQVEYA [PRE10] | 3.04 ± 0.057 | 2.91 ± 0.059 | 2.87 ± 0.049 | 2.79 ± 0.054
38 | HNVFSKEQTIQLPSKFT [RPN14] | 2.41 ± 0.11 | 2.79 ± 0.085 | 2.43 ± 0.12 | 2.64 ± 0.099
39 | YLFDEIDAALDKQYRTA [SMC3] | 2.88 ± 0.091 | 2.77 ± 0.097 | 2.61 ± 0.1 | 3.12 ± 0.064
40 | IEQFAMRRNSKILNIIK [POP5] | 3.08 ± 0.084 | 2.88 ± 0.077 | 2.86 ± 0.076 | 3.23 ± 0.07
41 | QFLRLIFVSILSDRANK [ARP9] | 1.64 ± 0.065 | 1.65 ± 0.075 | 2.18 ± 0.087 | 1.2 ± 0.027
42 | CLFTKCLEDPEKPFNEN [POP4] | 2.67 ± 0.15 | 3.02 ± 0.15 | 2.7 ± 0.2 | 2.96 ± 0.079
43 | YYGLVIDLLLLGQERAT [PRP8] | 1.76 ± 0.083 | 1.26 ± 0.053 | 1.23 ± 0.11 | 1.38 ± 0.039
44 | KPLGLDRYGNRYFWLDH [ITC1] | 2.77 ± 0.11 | 3.02 ± 0.13 | 2.85 ± 0.056 | 2.74 ± 0.086
45 | IVACELILSGDTTANNG [YJL039C/NUP192] | 2.66 ± 0.067 | 2.46 ± 0.068 | 2 ± 0.077 | 1.7 ± 0.032
46 | EYGKHDFKNEESLSEEH [MED8] | 3.3 ± 0.1 | 3 ± 0.081 | 3.1 ± 0.053 | 3.34 ± 0.054
47 | LELLNQLDGFSSDDRVK [RPT5] | 3.07 ± 0.064 | 3.15 ± 0.056 | 2.96 ± 0.051 | 3.03 ± 0.046
48 | TSTEKLYKLNDKIAVAV [PRE9] | 2.84 ± 0.072 | 2.93 ± 0.081 | 3.1 ± 0.081 | 2.95 ± 0.068
49 | IKEKVQFNATINPESRE [ITC1] | 1.67 ± 0.046 | 1.6 ± 0.044 | 1.97 ± 0.073 | 2.07 ± 0.037
50 | LLRRLKKDVEKELPDKV [SNF2] | – | 3.67 ± 0.24 | 3.36 ± 0.092 | 3.38 ± 0.12
51 | LNDVVSFLFSAIPLQQV [SWI1] | 1.83 ± 0.044 | 2.08 ± 0.039 | 1.94 ± 0.057 | 1.75 ± 0.026
52 | QILPESQWNDSSIDKIE [SIR3] | – | 3.42 ± 0.18 | – | 2.81 ± 0.12
53 | NSSESDEEESNDEKQKA [RPN13] | 3.32 ± 0.17 | 2.43 ± 0.21 | – | 3.41 ± 0.088
54 | SLFSKIKTFFTQKDSAR [YAR002W/NUP60] | 2.21 ± 0.091 | 2.84 ± 0.083 | 2.42 ± 0.09 | 2.68 ± 0.087
